The source of these data is article PMC10407282, “An efficient selenium transport pathway of selenoprotein P utilizing a high-affinity ApoER2 receptor variant and being independent of selenocysteine lyase” (The Journal of Biological Chemistry, 2023).

For this experiment, the target named is T1, ^75Se-labeled selenoprotein P prepared from HepG2 cells (human (endogenous in HepG2), UniProt P49908 20-381, ^75Se label (cells cultured with ^75Se as selenite); selenocysteine residues).
T1 construct: Selenoprotein P, human, secreted by HepG2 cells that express it endogenously; single band at 69 kDa; also called ^75Se-labeled SeP; ^75Se-labeled human SeP; source: endogenous, HepG2 conditioned medium with ^75Se selenite, partially purified (Ni-NTA agarose, PD-10)
T1 sequence (looked up): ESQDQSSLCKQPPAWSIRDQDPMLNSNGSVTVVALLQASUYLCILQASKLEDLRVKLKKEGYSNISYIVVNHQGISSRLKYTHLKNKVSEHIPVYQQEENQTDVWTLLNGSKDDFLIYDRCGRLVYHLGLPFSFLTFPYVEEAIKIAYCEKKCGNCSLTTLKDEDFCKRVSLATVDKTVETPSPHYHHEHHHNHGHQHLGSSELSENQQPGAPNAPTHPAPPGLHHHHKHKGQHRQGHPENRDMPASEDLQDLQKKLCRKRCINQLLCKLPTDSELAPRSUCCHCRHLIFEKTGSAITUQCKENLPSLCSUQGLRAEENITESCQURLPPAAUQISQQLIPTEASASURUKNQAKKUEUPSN
Kind of experiment: radioligand binding; Jurkat cells (1.4 x 10^7) with serial dilution of ^75Se-labeled SeP, 1 h at 4 °C, RPMI 1640 with 0.1% BSA, 0.1% NaN3, 50 mM Hepes pH 7.4; nonspecific binding with 500-fold excess of unlabeled SeP; Scatchard analysis, n = 4. As to conditions: one partner purified.

B1: Apolipoprotein E receptor 2, 140-kDa variant endogenous on Jurkat cells (JΔ5,18) (receptor)
chain: AADPLLGGQGPAKDCEKDQFQCRNERCIPSVWRCDEDDDCLDHSDEDDCPKKTCADSDFTCDNGHCIHERWKCDGEEECPDGSDESEATCTKQVCPAEKLSCGPTSHKCVPASWRCDGEKDCEGGADEAGCATSLGTCRGDEFQCGDGTCVLAIKHCNQEQDCPDGSDEAGCLQGLNECLHNNGGCSHICTDLKIGFECTCPAGFQLLDQKTCGDIDECKDPDACSQICVNYKGYFKCECYPGYEMDLLTKNCKAAAGKSPSLIFTNRHEVRRIDLVKRNYSRLIPMLKNVVALDVEVATNRIYWCDLSYRKIYSAYMDKASDPKEQEVLIDEQLHSPEGLAVDWVHKHIYWTDSGNKTISVATVDGGRRRTLFSRNLSEPRAIAVDPLRGFMYWSDWGDQAKIEKSGLNGVDRQTLVSDNIEWPNGITLDLLSQRLYWVDSKLHQLSSIDFSGGNRKTLISSTDFLSHPFGIAVFEDKVFWTDLENEAIFSANRLNGLEISILAENLNNPHDIVIFHELKQPRAPDACELSVQPNGGCEYLCLPAPQISSHSPKYTCACPDTMWLGPDMKRCYRAPQSTSTTTLASTMTRTVPATTRAPGTTVHRSTYQNHSTETPSLTAAVPSSVSVPRAPSISPSTLSPATSNHSQHYANEDSKMGSTVTAAVIGIIVPIVVIALLCMSGYLIWRNWKRKNTKSMNFDNPVYRKTTEEEDEDELHIGRTAQIGHVYPARVALSLEDDGLP
modifications: highly glycosylated O-linked sugar domain
The term Kd denotes the equilibrium constant for the complex coming apart. A higher Kd goes with a looser complex. In the case of B1, the Kd came to 0.67 nM.
